Laboratory results reported in US20060024308A1.

Assays:
human TNF-α (human) [1] = target: human TNF-α (human) (UniProt P01375); assay: cell-based or functional assay
human TNF-α (human) [2] = target: human TNF-α (human) (UniProt P01375)

human TNF-α (human), sequence (P01375 77-233 limits assumed): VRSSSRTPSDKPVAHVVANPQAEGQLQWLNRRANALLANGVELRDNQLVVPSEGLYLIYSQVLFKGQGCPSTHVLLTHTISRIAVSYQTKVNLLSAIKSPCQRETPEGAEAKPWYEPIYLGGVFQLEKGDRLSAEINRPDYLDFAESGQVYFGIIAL

Humira (IgG1) (antibody)
Average IC50, neutralization of TNF-α cytotoxicity on L929 cells (human TNF-α (human) [1]): 23 pM
ND50 (L929 cell survival, neutralisation of TNF-α cytotoxicity) (human TNF-α (human) [2]): 28 pM
